The values below come from PMC6934829, “Multi-Factor Regulation of the Master Modulator LeuO for the Cyclic-(Phe-Pro) Signaling Pathway in Vibrio vulnificus” (Scientific Reports, 2019).

Assay [1] concerns the target T1, ToxR-C (C-terminal periplasmic domain of ToxR) (Vibrio vulnificus, UniProt Q9RP86).
T1 construct: C-terminal His-tag (pET21a), expressed in E. coli BL21(DE3)
Put plainly: isothermal titration calorimetry. The class given is binding. In general terms: In ITC the heat of successive injections is recorded.

Assay [2] concerns the target C-terminal periplasmic domain of ToxR (ToxR-C) (Vibrio vulnificus). Put plainly: ITC; 0.2 mM ToxR-C in the cell, 10 mM cFP or linear FP in the syringe, 2 ul injections at 2 min intervals, 25 °C, 20 mM Na2HPO4 pH 7.8, 1 mM EDTA; simple binding model.

pKd: −log10 of the molar value.

In assay [1], `O=C1N[C@@H](Cc2ccccc2)C(=O)N2CCC[C@@H]12` [cFP] had a pKd of 4.38.

For “cyclic-L-phenylalanine-L-proline (cFP) (peptide)”, in assay [2], the negative logarithm of the Kd (pKd) was 4.38 and the stoichiometry N turned out to be 1.

Usually pKd stands for −log10 of the Kd, conventionally taken in molar units. As a reminder, the stoichiometry N is the number of molecules, sites or subunits per partner or assembly.
